As usually defined, the Kd is the equilibrium constant for the complex coming apart. A word on the koff: it is the first-order rate constant of dissociation. For orientation: kon means the second-order rate constant of association. In general, IC50 refers to the concentration that gives 50% inhibition.

Here are results for two molecules from patent publication US20220267440A1 (ABSOS, published 2022).

Experiment [1] has as its target T1, recombinant human CD47 (Novoprotein cat no. C321, lot no. 0329689) (human, UniProt Q08722 19-139).
T1 construct: Bought reagent
Nature of the experiment: SPR summary table, 25 C.
Procedure: (§1) Binding kinetics were measured at 25° C. using a BioRad ProteOn XPR36 optical biosensor equipped with GLM sensor chips and equilibrated with running buffer (HBS, 0.005% TWEEN-20, 0.1 mg/mL BSA, pH 7.4).
(§2) CD47 was tested in a three-fold dilution series starting at 100 nM.

The target of experiment [2] is T1, recombinant human CD47 (Novoprotein cat …). Nature of the experiment: SPR, antibodies binned by kd at 25 C (value is the column's head).
Procedure: as §1, §2
Experiment [3] shares this target. The experiment is described as follows: SPR (ProteOn XPR36), mAb captured on anti-mouse Fc, CD47 as analyte, 25 C, 1:1 model.
Procedure: as §1, §2
The target of experiment [4] is T2, recombinant CD47-Fc (Sino Biologics) (human, UniProt Q08722 19-139).
T2 construct: Bought reagent; also called human CD47-Fc; not shown: Fc
The experiment is described as follows: competition ELISA: HIS-tagged SIRP α binding to plate-bound CD47-Fc, antibody titrated. A general note: An ELISA detects its analyte on a solid surface through an enzyme-linked reagent.

Experiment [5] deals with T1, recombinant human CD47 (Novoprotein cat …). Nature of the experiment: SPR summary table, 25 C; kd fixed.
Procedure: (§3) Affinity was determined for five selected AlivaMab Mouse monoclonal hybridoma supernatants (Biosensor Tools, Salt Lake City, Utah). Binding kinetics were measured at 25° C. using a BioRad ProteOn XPR36 optical biosensor equipped with GLM sensor chips and equilibrated with running buffer (HBS, 0.005% TWEEN-20, 0.1 mg/mL BSA, pH 7.4).
as §2
The target is the same in experiment [6]. The experiment is described as follows: SPR summary table, 25 C; dissociation rate constant fixed at 1e-5 s^-1; summary table; kd fixed at 1e-5.
Procedure: as §3, §2
Experiment [7] shares this target. Nature of the experiment: SPR (ProteOn XPR36), mAb captured on anti-mouse Fc, CD47 as analyte, 25 C; kd fixed, KD a rough estimate.
Procedure: as §3, §2
Experiment [8] shares this target. The experiment is described as follows: SPR (ProteOn XPR36), mAb captured on anti-mouse Fc, CD47 as analyte, 25 C; no decay detected, kd fixed at 1e-5 in the fit; no decay seen; kd fixed at 1e-5 in the fit.
Procedure: as §3, §2

Bounds are passed on as bounds.

B1: anti-CD47 AlivaMab antibody 151 (antibody, IgG1, V domains shown)
VH: QVQLQESGPGLVKPSETLSLTCTVSGGSISSYYWSWIRQPPGKGLEWIGYIYYSGSTNYNPSLKSRVTISVDTSKNQFSLKLSSVTAADTAVYYCARKRKYFDYWGQGTLVTVSS
VL: DIQMTQSPSSLSASVGDRVTITCRASQGISNYLAWYQQKPGKVPKLLIYAASTLQSGVPSRFSGSGSGTDFTLTISSLQPEDVATYYCQKCNSAPFTFGPGTKVDIK
notes: Chimeric AlivaMab Mouse mAb from hybridoma: human V, CH1 and upper hinge, mouse middle hinge, CH2 and CH3, human kappa light chain; also called clone 151; mAb 151
With B1, in experiment [1], the Kd was 1 nM, the koff was found to be 0.0089 s⁻¹ and the kon amounted to 8.7e+06 M⁻¹ s⁻¹. The off-rate (koff) in experiment [2] was approximately 0.01 s⁻¹. Further, in experiment [3], the Kd came to 1 nM, the dissociation rate constant (koff) was determined as 0.0089 s⁻¹ and the kon turned out to be 8.7e+06 M⁻¹ s⁻¹. The IC50 in experiment [4] turned out to be 2 nM.

B2: anti-CD47 AlivaMab antibody 139 (antibody, IgG1, V domains shown)
VH: QVQLQESGPGLVKPSETLSLTCTVSGGSISNYYWSWIRQPPGKGLEWIGYIYYSGSTNYNPSLKSRVTISVDTSKNQFSLKLSSVTAADTAVYYCARSRYFDLWGRGTLVTVSS
VL: DIQMTQSPSAMSASVGDRVTITCRASQGISIYLAWFQQKPGKVPKRLIYAASSLQSGVPSRFSGSGSGTEFTLTISSLQPEDFATYYCLQHTSYPYTFGQGTKLEIK
notes: Chimeric AlivaMab Mouse mAb from hybridoma: human V, CH1 and upper hinge, mouse middle hinge, CH2 and CH3, human kappa light chain
On to B2, for which the kon in experiment [1] and in experiment [3] was 1.18e+06 M⁻¹ s⁻¹ throughout. Further, the values for the Kd in experiment [5] and in experiment [7] were approximately 0.009 nM and not above 0.0085 nM, respectively. The koff in experiment [2], in experiment [6] and in experiment [8] was not above 1e-05 s⁻¹ throughout. Besides, the IC50 in experiment [4] came to 2.2 nM.
